Experimental data: patent publication US20210393777A1

What was measured:
[1] = biological target: LDLR (human) (UniProt P01130)
[2] = biological target: human PCSK9-D347Y (human) (UniProt Q8NBP7); assay: cell-based or functional assay

LDLR (human), sequence (P01130 22-860): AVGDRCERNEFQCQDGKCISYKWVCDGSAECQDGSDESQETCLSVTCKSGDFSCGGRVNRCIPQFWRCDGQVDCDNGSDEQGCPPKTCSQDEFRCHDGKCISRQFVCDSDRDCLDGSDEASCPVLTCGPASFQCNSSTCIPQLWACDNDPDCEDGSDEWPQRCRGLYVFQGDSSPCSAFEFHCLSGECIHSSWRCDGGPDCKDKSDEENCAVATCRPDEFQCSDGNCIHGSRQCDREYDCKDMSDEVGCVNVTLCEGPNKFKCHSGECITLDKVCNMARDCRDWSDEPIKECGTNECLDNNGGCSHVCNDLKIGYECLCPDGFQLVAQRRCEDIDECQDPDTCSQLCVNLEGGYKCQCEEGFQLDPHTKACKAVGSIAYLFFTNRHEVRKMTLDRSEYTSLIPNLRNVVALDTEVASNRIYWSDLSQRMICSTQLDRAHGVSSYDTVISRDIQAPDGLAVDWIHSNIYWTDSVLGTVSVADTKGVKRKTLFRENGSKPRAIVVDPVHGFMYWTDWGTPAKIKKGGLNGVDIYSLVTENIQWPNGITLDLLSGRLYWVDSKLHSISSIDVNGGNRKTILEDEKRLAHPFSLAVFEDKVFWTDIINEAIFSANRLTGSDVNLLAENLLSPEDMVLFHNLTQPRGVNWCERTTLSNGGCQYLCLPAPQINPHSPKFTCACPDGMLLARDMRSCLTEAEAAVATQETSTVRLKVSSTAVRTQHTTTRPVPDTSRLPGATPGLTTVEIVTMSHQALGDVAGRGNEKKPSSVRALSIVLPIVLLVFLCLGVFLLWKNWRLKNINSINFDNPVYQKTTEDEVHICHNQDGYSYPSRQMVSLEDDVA

“Cynomolgus monkey PCSK9 (from UniProt A0A7N9D9N8) (enzyme)” gave an IC50 of the fall in RFU as PCSK9 concentration rises ('Inhibition of different PCSK9 antigen species'; binding and uptake of LDL by cells) [1] of 2.46 µg/mL.
JS002 (antibody) was tested, and the Biological activity (LDL uptake assay in HepG2 cells), formulation 20, 25 C, month 0 (% of reference standard) [2] was 104, the Biological activity (LDL uptake assay in HepG2 cells), formulation 20, 25 C, month 1 (% of reference standard) [2] was 94.2 and the Biological activity (LDL uptake assay in HepG2 cells), formulation 20, 25 C, month 3 (% of reference standard) [2] was 92.6. It also gave a Biological activity (LDL uptake assay in HepG2 cells), formulation 20, 25 C, month 6 (% of reference standard) [2] of 81.1, a Biological activity (LDL uptake assay in HepG2 cells), formulation 28, 2-8 C, month 0 (% of reference standard) [2] of 120 and a Biological activity (LDL uptake assay in HepG2 cells), formulation 28, 2-8 C, month 1 (% of reference standard) [2] of 106. The Biological activity (LDL uptake assay in HepG2 cells), formulation 28, 2-8 C, month 2 (% of reference standard) [2] was 111, the Biological activity (LDL uptake assay in HepG2 cells), formulation 28, 2-8 C, month 3 (% of reference standard) [2] was 109 and the Biological activity (LDL uptake assay in HepG2 cells), formulation 28, 2-8 C, month 6 (% of reference standard) [2] was 106. It also gave a Biological activity (LDL uptake assay in HepG2 cells), formulation 28, 2-8 C, month 9 (% of reference standard) [2] of 104, a Biological activity (LDL uptake assay in HepG2 cells), formulation 28, 2-8 C, month 12 (% of reference standard) [2] of 109 and a Biological activity (LDL uptake assay in HepG2 cells), formulation 29, 2-8 C, month 0 (% of reference standard) [2] of 102. It also gave a Biological activity (LDL uptake assay in HepG2 cells), formulation 29, 2-8 C, month 1 (% of reference standard) [2] of 103, a Biological activity (LDL uptake assay in HepG2 cells), formulation 29, 2-8 C, month 2 (% of reference standard) [2] of 97.3 and a Biological activity (LDL uptake assay in HepG2 cells), formulation 29, 2-8 C, month 3 (% of reference standard) [2] of 90.3. The Biological activity (LDL uptake assay in HepG2 cells), formulation 29, 2-8 C, month 6 (% of reference standard) [2] was 84.9, the Biological activity (LDL uptake assay in HepG2 cells), formulation 29, 2-8 C, month 9 (% of reference standard) [2] was 103 and the Biological activity (LDL uptake assay in HepG2 cells), formulation 29, 2-8 C, month 12 (% of reference standard) [2] was 97.7. The Biological activity (LDL uptake assay in HepG2 cells), formulation 30, 2-8 C, month 0 (% of reference standard) [2] was 114, the Biological activity (LDL uptake assay in HepG2 cells), formulation 30, 2-8 C, month 1 (% of reference standard) [2] was 94.6 and the Biological activity (LDL uptake assay in HepG2 cells), formulation 30, 2-8 C, month 2 (% of reference standard) [2] was 96.8. The Biological activity (LDL uptake assay in HepG2 cells), formulation 30, 2-8 C, month 3 (% of reference standard) [2] was 98.7, the Biological activity (LDL uptake assay in HepG2 cells), formulation 30, 2-8 C, month 6 (% of reference standard) [2] was 92.3 and the Biological activity (LDL uptake assay in HepG2 cells), formulation 30, 2-8 C, month 9 (% of reference standard) [2] was 106. It also gave a Biological activity (LDL uptake assay in HepG2 cells), formulation 30, 2-8 C, month 12 (% of reference standard) [2] of 97.2, a Biological activity (LDL uptake assay in HepG2 cells), formulation 31, 2-8 C, month 0 (% of reference standard) [2] of 122 and a Biological activity (LDL uptake assay in HepG2 cells), formulation 31, 2-8 C, month 1 (% of reference standard) [2] of 97.9. For the same substance, the Biological activity (LDL uptake assay in HepG2 cells), formulation 31, 2-8 C, month 2 (% of reference standard) [2] was 83.5, the Biological activity (LDL uptake assay in HepG2 cells), formulation 31, 2-8 C, month 3 (% of reference standard) [2] was 107 and the Biological activity (LDL uptake assay in HepG2 cells), formulation 31, 2-8 C, month 6 (% of reference standard) [2] was 108. The Biological activity (LDL uptake assay in HepG2 cells), formulation 31, 2-8 C, month 9 (% of reference standard) [2] was 87.8, the Biological activity (LDL uptake assay in HepG2 cells), formulation 31, 2-8 C, month 12 (% of reference standard) [2] was 102 and the EC50, uptake of fluorescently labeled LDL by HepG2 cells exposed to human PCSK9-D347Y [2] was 0.0927 µg/mL.
For evolocumab (antibody), the EC50, uptake of fluorescently labeled LDL by HepG2 cells exposed to human PCSK9-D347Y [2] was 0.151 µg/mL.
